Laboratory results taken from patent US20220411504A1 (Janssen / Centocor, published 2022).

Target: T1, human Kallikrein-2 6-His protein (soluble hK2) (human, UniProt P20151 18-261, limits assumed)
T1 construct: The assays say only 'soluble hK2' or 'human KLK2 antigen'; also called KLK2; kallikrein related peptidase 2
Assay: SPR, bispecific captured by anti-Fc, soluble hK2 injected

T1 sequence (P20151 other isoform, or with tags, fused parts or gaps limits assumed): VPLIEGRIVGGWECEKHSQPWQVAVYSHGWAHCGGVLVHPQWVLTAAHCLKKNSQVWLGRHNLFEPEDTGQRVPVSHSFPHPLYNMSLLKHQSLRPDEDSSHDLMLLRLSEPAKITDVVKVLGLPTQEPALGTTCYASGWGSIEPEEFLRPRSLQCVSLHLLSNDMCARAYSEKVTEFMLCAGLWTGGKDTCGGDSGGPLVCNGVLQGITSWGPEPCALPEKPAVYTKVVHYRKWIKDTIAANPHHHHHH

B1: KL2B242 Fab (arm of a hK2/CD3 bispecific, Table 40) (bispecific antibody)
chain 1: QVQLQESGPGLVKPSETLSLTCTVSGGSISSYYWSWLRQPAGSGLEWIGRLYVSGFTNYNPSLKSRVTLSLDPSRNQLSLKLSSVTAADTAVYYCAGDSGNYWGWFDPWGQGTLVTVSSASTKGPSVFPLAPSSKSTSGGTAALGCLVKDYFPEPVTVSWNSGALTSGVHTFPAVLQSSGLYSLSSVVTVPSSSLGTQTYICNVNHKPSNTKVDKKVEPKSCDKTHTCPPCPAPEAAGGPSVFLFPPKPKDTLMISRTPEVTCVVVSVSHEDPEVKFNWYVDGVEVHNAKTKPREEQYNSTYRVVSVLTVLHQDWLNGKEYKCKVSNKALPAPIEKTISKAKGQPREPQVYVLPPSREEMTKNQVSLLCLVKGFYPSDIAVEWESNGQPENNYLTWPPVLDSDGSFFLYSKLTVDKSRWQQGNVFSCSVMHEALHNHYTQKSLSLSPG
chain 2: SYELTQPPSVSVSPGETASITCSGDQLGENYASWYQQKPGQSPVLVIYQDSKRPSGIPERFSGSNSGNTATLTISGTQALDEADYYCQAWDNSIVVFGGGTKLTVLGQPKAAPSVTLFPPSSEELQANKATLVCLISDFYPGAVTVAWKADSSPVKAGVETTTPSKQSNNKYAASSYLSLTPEQWKSHRSYSCQVTHEGSTVEKTVAPTECS
chain 3: DIQMTQSPSSLSASVGDRVTITCRARQSIGTAIHWYQQKPGKAPKLLIKYASESISGVPSRFSGSGSGTDFTLTISSLQPEDFATYYCQQSGSWPYTFGQGTKLEIKGGSEGKSSGSGSESKSTGGSEVQLVESGGGLVKPGGSLRLSCAASGFTFSRYNMNWVRQAPGKGLEWVSSISTSSNYIYYADSVKGRFTFSRDNAKNSLDLQMSGLRAEDTAIYYCTRGWGPFDYWGQGTLVTVSSEPKSSDKTHTCPPCPAPEAAGGPSVFLFPPKPKDTLMISRTPEVTCVVVSVSHEDPEVKFNWYVDGVEVHNAKTKPREEQYNSTYRVVSVLTVLHQDWLNGKEYKCKVSNKALPAPIEKTISKAKGQPREPQVYVYPPSREEMTKNQVSLTCLVKGFYPSDIAVEWESNGQPENNYKTTPPVLDSDGSFALVSKLTVDKSRWQQGNVFSCSVMHEALHNHYTQKSLSLSPG
B1 was tested, and the Kd was 0.14 nM.
